According to paper PMC4631838, “Molecular architecture of the yeast Mediator complex” (eLife, 2015):

T1: Med14 (Rgr1), Mediator subunit (S. cerevisiae, UniProt P19263 1-1082)
T1 construct: Med14 (Rgr1), S. cerevisiae, endogenous, residues 1-1082 spoken of; source: endogenous, S. cerevisiae CB010 double-tagged strain; within the purified native holoenzyme
T1 sequence (looked up): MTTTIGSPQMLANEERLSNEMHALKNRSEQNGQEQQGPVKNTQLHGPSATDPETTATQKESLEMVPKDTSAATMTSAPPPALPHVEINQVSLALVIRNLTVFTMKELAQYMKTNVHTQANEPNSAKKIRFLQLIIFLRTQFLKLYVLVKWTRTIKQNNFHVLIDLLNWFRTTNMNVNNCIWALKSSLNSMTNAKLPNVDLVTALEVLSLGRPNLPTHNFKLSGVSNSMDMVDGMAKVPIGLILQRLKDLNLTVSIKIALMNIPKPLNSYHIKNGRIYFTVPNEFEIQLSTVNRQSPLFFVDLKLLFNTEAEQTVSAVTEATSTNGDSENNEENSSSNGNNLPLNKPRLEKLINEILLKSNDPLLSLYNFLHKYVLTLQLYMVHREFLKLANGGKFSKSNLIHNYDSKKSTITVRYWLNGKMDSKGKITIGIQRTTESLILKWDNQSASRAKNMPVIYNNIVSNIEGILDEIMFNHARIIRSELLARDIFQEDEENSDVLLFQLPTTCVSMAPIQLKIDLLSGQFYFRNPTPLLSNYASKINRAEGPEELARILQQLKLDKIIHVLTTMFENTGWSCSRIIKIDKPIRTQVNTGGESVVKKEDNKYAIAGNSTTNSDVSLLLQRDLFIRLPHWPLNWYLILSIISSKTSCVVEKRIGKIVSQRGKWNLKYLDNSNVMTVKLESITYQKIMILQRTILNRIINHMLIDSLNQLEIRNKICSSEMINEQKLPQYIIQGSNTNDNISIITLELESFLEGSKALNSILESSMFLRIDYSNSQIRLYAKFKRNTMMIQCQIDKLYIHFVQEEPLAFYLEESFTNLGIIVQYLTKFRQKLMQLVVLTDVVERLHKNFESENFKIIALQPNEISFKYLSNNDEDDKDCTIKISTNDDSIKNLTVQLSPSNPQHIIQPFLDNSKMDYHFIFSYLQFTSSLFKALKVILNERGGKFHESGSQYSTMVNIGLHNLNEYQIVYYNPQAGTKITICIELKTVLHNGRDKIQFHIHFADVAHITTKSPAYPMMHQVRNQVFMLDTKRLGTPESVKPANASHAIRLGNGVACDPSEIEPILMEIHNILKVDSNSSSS

T2: Med1, Mediator Middle module subunit (S. cerevisiae, UniProt Q12321 1-566)
T2 construct: Med1, S. cerevisiae, endogenous; source: endogenous, S. cerevisiae CB010 double-tagged strain; within the purified native holoenzyme
T2 sequence (looked up): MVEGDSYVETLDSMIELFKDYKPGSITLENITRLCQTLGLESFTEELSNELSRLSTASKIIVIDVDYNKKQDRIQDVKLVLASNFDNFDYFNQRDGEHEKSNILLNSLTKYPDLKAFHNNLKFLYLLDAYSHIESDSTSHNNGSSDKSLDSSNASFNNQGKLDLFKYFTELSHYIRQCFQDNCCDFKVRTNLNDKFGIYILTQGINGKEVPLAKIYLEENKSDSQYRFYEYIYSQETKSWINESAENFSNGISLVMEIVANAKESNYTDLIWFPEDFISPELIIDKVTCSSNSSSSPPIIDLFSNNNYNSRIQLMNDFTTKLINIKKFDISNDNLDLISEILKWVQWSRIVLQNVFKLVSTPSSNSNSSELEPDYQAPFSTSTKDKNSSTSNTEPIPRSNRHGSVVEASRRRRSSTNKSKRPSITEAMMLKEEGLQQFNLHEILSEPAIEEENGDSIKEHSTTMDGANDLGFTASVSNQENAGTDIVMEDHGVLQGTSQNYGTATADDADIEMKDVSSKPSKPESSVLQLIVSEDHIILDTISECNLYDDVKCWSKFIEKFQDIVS

T3: Med5 (Nut1), Mediator Tail module subunit (S. cerevisiae, UniProt P53114 1-1132)
T3 construct: Med5 (Nut1), S. cerevisiae, endogenous; source: endogenous, S. cerevisiae CB010 double-tagged strain; within the purified native holoenzyme
T3 sequence (looked up): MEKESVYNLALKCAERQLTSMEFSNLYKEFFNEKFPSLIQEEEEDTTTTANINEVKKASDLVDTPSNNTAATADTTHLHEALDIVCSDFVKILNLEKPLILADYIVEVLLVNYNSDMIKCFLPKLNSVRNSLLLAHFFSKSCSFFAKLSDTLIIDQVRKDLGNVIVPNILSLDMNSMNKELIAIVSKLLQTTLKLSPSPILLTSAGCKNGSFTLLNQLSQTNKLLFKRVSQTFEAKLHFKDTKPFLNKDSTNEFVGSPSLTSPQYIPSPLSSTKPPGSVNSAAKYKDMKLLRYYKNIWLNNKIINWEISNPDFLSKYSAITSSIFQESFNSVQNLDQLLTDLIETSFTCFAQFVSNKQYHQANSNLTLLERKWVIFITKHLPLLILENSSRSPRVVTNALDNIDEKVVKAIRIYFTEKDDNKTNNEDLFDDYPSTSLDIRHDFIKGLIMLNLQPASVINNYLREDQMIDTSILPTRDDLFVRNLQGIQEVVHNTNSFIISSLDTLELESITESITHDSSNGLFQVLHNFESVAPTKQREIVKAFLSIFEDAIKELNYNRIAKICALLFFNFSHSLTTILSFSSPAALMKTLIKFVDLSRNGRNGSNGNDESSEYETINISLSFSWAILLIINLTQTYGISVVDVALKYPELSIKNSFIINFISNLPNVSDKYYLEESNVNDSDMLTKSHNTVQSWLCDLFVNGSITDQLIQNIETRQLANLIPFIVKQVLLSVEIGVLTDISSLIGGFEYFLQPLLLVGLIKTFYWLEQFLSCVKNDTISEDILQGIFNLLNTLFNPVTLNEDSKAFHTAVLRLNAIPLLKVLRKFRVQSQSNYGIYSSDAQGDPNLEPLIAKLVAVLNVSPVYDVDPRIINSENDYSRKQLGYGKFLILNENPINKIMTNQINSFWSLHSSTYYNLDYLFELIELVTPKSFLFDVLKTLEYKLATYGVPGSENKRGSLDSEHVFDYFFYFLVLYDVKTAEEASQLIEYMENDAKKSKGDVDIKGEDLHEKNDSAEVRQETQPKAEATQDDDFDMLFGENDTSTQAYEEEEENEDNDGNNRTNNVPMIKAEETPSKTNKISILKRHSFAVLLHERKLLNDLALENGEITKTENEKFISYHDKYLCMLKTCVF


Columns and labels:
Assay in all cases: cross-linking; BS3 (unlabeled, or 50:50 with 2H12-labeled BS3) on the purified native holoenzyme; 150 mM NaPO4, 150 mM KOAc, pH 7.5, 5% glycerol, 2 mM DTT; procedure A 2.7 mM reagent 120 min on ice; trypsin digest, LC-MS/MS, Protein Prospector
Settings in all cases: both partners purified
[1] = molecular target: T1, Med14 (Rgr1), Mediator subunit
[2] = molecular target: T2, Med1, Mediator Middle module subunit
[3] = molecular target: T3, Med5 (Nut1), Mediator Tail module …

Row | Binder | binding result [1] | binding result [2] | binding result [3]
1 | Med4, Mediator Middle module subunit (natural protein, S. cerevisiae, UniProt Q12343 1-284, looked up, Med4, S. cerevisiae, endogenous; source: endogenous, S. cerevisiae CB010 double-tagged strain; within the purified native holoenzyme) MSVQDTKAVEFSMGHIRSSSVSLVAEATSNTNSEDKLSKVQLYEDLCRYEDTLSKLVESVDRFKPNLDIAKDLIRTDEALFENVKLLAEYDNIYRNLQKIDKDSEELDSKTRKILEILNECHDELKALPMLEQVEFEKNTILQQRSKINSTELLDYATKLSKFTKIPPTFDKGAVGPNNFIWPAEDALRRGMLAMASLHSKELTRIPGEEVEETEVPTVPPSQSEEQKGQMAKKEGTPKTDSFIFDGTAKEVGDEADNTKDKEKEENNDDALDLDLDLFDPDDF | binds | binds | –
2 | Med2, Mediator Tail module subunit (natural protein, S. cerevisiae, UniProt Q12124 1-431, looked up, Med2, S. cerevisiae, endogenous; source: endogenous, S. cerevisiae CB010 double-tagged strain; within the purified native holoenzyme) MVVQNSPVSSVHTANFSERGSNTRTMTYKNKLTVCFDDILKVGAEMMMQQQLKNVQLDSYLVNGFSQSQQKLLKEKVKLFHGILDDLETSLSQSSSYLETLTALGKEKEKEREEAEKKRAEQENMRKVREQEELKKRQELEEASQQQQLQQNSKEKNGLGLNFSTTAPANTTDANGSKENYQELGSLQSSSQTQLENANAANNGAAFSPLTTTRIQSQQAQPSDVMFNDLNSMDISMFSGLDSTGFDSTAFNATVDETKGFDDNDSGNNYNDINISSIENNINNNINSTKNGKDNNNESNKNNNGDEKNKNNNEDNENNNNSSEKNNNNNNNNNNNNDDNGNNNNNNSGNDNNNTTNNDSNNKNNSITTGNDNENIVNNDLPTTVVSNPGDNPPPADNGEEYLTLNDFNDLNIDWSTTGDNGELDLSGFNI | binds | – | –
3 | Med10 (Nut2), Mediator Middle module subunit (natural protein, S. cerevisiae, UniProt Q06213 1-157, looked up, Med10 (Nut2), S. cerevisiae, endogenous; source: endogenous, S. cerevisiae CB010 double-tagged strain; within the purified native holoenzyme) MNGNSTNNEQLQQELATTQDQVASIIESFVELGVSIYDFPGTPEATKGMITNLQRNVDRLYKLNVRSNDPQSSLSKVDIPLEVVQYIEDGRNPDIYTREFVEAIRRSNQYQRGKMHGLKQLRDSLADKIVDEFPELKEPVEDIIKRTSPIDNVSNTH | binds | – | –

The next lines start with the values.

Row | binding result [1] | binding result [2] | binding result [3] | Binder
4 | binds | – | – | Med17 (Srb4), Mediator Head module subunit (natural protein, S. cerevisiae, UniProt P32569 1-687, looked up, Med17 (Srb4), S. cerevisiae, endogenous, residues 1-687 spoken of; cross-linking was done after cleavage; also called Med17p; source: endogenous, S. cerevisiae CB010 double-tagged strain; within the purified native holoenzyme; not shown: TAP, N-terminal, cleaved) MTTEDPDSNHLSSETGIKLALDPNLITLALSSNPNSSLHSPTSDEPVPESAGKADTSIRLEGDELENKTKKDNDKNLKFLKNKDSLVSNPHEIYGSMPLEQLIPIILRQRGPGFKFVDLNEKELQNEIKQLGSDSSDGHNSEKKDTDGADENVQIGEDFMEVDYEDKDNPVDSRNETDHKTNENGETDDNIETVMTQEQFVKRRRDMLEHINLAMNESSLALEFVSLLLSSVKESTGMSSMSPFLRKVVKPSSLNSDKIPYVAPTKKEYIELDILNKGWKLQSLNESKDLLRASFNKLSSILQNEHDYWNKIMQSISNKDVIFKIRDRTSGQKLLAIKYGYEDSGSTYKHDRGIANIRNNIESQNLDLIPHSSSVFKGTDFVHSVKKFLRVRIFTKIESEDDYILSGESVMDRDSESEEAETKDIRKQIQLLKKIIFEKELMYQIKKECALLISYGVSIENENKVIIELPNEKFEIELLSLDDDSIVNHEQDLPKINDKRANLMLVMLRLLLVVIFKKTLRSRISSPHGLINLNVDDDILIIRPILGKVRFANYKLLLKKIIKDYVLDIVPGSSITETEVEREQPQENKNIDDENITKLNKEIRAFDKLLNIPRRELKINLPLTEHKSPNLSLMLESPNYCNALIHIKFSAGTEANAVSFDTTFSDFKEVEDFLHFIVAEYIQQKKV
5 | binds | – | binds | Med15 (Gal11), Mediator Tail module subunit (natural protein, S. cerevisiae, UniProt P19659 1-1081, looked up, Med15 (Gal11), S. cerevisiae, endogenous; source: endogenous, S. cerevisiae CB010 double-tagged strain; within the purified native holoenzyme) MSAAPVQDKDTLSNAERAKNVNGLLQVLMDINTLNGGSSDTADKIRIHAKNFEAALFAKSSSKKEYMDSMNEKVAVMRNTYNTRKNAVTAAAANNNIKPVEQHHINNLKNSGNSANNMNVNMNLNPQMFLNQQAQARQQVAQQLRNQQQQQQQQQQQQRRQLTPQQQQLVNQMKVAPIPKQLLQRIPNIPPNINTWQQVTALAQQKLLTPQDMEAAKEVYKIHQQLLFKARLQQQQAQAQAQANNNNNGLPQNGNINNNINIPQQQQMQPPNSSANNNPLQQQSSQNTVPNVLNQINQIFSPEEQRSLLQEAIETCKNFEKTQLGSTMTEPVKQSFIRKYINQKALRKIQALRDVKNNNNANNNGSNLQRAQNVPMNIIQQQQQQNTNNNDTIATSATPNAAAFSQQQNASSKLYQMQQQQQAQAQAQAQAQAQAQAQAQAQAAQAAQAQAQAQAQAQAQAQAQAQAQAQAQAQAQAQAQAHAQHQPSQQPQQAQQQPNPLHGLTPTAKDVEVIKQLSLDASKTNLRLTDVTNSLSNEEKEKIKMKLKQGQKLFVQVSNFAPQVYIITKNENFLKEVFQLRIFVKEILEKCAEGIFVVKLDTVDRLIIKYQKYWESMRIQILRRQAILRQQQQMANNNGNPGTTSTGNNNNIATQQNMQQSLQQMQHLQQLKMQQQQQQQQQQQQQQQQQQQQQQQHIYPSSTPGVANYSAMANAPGNNIPYMNHKNTSSMDFLNSMENTPKVPVSAAATPSLNKTINGKVNGRTKSNTIPVTSIPSTNKKLSISNAASQQPTPRSASNTAKSTPNTNPSPLKTQTKNGTPNPNNMKTVQSPMGAQPSYNSAIIENAFRKEELLLKDLEIRKLEISSRFKHRQEIFKDSPMDLFMSTLGDCLGIKDEEMLTSCTIPKAVVDHINGSGKRKPTKAAQRARDQDSIDISIKDNKLVMKSKFNKSNRSYSIALSNVAAIFKGIGGNFKDLSTLVHSSSPSTSSNMDVGNPRKRKASVLEISPQDSIASVLSPDSNIMSDSKKIKVDSPDDPFMTKSGATTSEKQEVTNEAPFLTSGTSSEQFNVWDWNNWTSAT
